Data published in the supplement of paper PMC7877785.
± gives the uncertainty stated by the source.

Assay: self-splicing fitness, log relative to wild type (ln ratio); higher = more splicing; Tetrahymena group I intron in knt gene, E. coli kanamycin selection, DiMSum; sequences stand for … in CUCUCU…GGAGGGAAAAGUUAUCAGGCAUGCACCUGGUAGCUAGUCUUUAAACCAAUAGAUUGCAUCGGUUUAAAAGGCAAGACCGUCAAAUUGCGGGAAAGGGGUCAACAGCCGUUCAGUACCAAGUCUCAGGGGAAACUUUGAGAUGGCCUUGCAAAGGGUAUGGUAAUAAGCUGACGGACAUGGUCCUAACCACGCAGCCAAGUCCUAAGUCAACAGAUCUUCUGUUGAUAUGGAUGCAGUUCACAGACUAAAUGUCGGUCGGGGAAGAUGUAUUCUUCUCAUAAGAUAUAGUCGGACCUCUCCUUAAUGGGAGCUAGCGGAUGAAGUGAUGCAACACUGGAGCCGCUGGGAACUAAUUUGUAUGCGAAAGUAUAUUGAUUAGUUUUGGAGUACUCGUGGUCG
Summary of the method: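 The eight P1ex-region nucleotides of an intron in the knt kanamycin-resistance gene on pET-22b(+) were all randomised and the library put into E. coli BL21(DE3). Six replicate transformations were grown overnight at 37°C or 30°C on LB agar with or without 25 μg/mL kanamycin, together with 100 μg/mL carbenicillin, 50 μM IPTG and 0.2% rhamnose. Colonies were pooled and amplicon-sequenced on an Illumina HiSeq 2500. Fitness from DiMSum is the error-weighted combination of wild-type-normalised replicate fold changes, kanamycin over none.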

Sequence | self-splicing fitness (ln) (30 °C) | self-splicing fitness (ln) (37 °C)
CGCUAGCAAUAUUACGAGUU | -2.49 ± 0.1 | -2.38 ± 0.15
AUAGAGCAAUAUUACGUGGA | -3.98 ± 0.27 | -3.39 ± 0.29
ACUCAGCAAUAUUACGUCGA | -3.15 ± 0.25 | -1.94 ± 0.18
AUGCAGCAAUAUUACGAGGU | -3.04 ± 0.16 | -2.27 ± 0.13
CCGAAGCAAUAUUACGUUUC | -3.56 ± 0.24 | -2.84 ± 0.19
GCACAGCAAUAUUACGGUAU | -0.511 ± 0.038 | 0.102 ± 0.059
UGGAAGCAAUAUUACGUUUG | -0.722 ± 0.082 | -0.645 ± 0.13
GCCUAGCAAUAUUACGACAA | -2.19 ± 0.23 | -2.22 ± 0.32
GUCCAGCAAUAUUACGGGGA | -2.41 ± 0.13 | -1.37 ± 0.12
GCCUAGCAAUAUUACGUCCU | -1.68 ± 0.068 | -0.494 ± 0.096
AACCAGCAAUAUUACGGACC | 0.38 ± 0.1 | -0.273 ± 0.11
UGAUAGCAAUAUUACGACCA | -2.04 ± 0.23 | -0.327 ± 0.37
AAAGAGCAAUAUUACGCCUC | -0.411 ± 0.27 | –
CUACAGCAAUAUUACGUGUA | -3.12 ± 0.14 | -2.93 ± 0.16
AUUGAGCAAUAUUACGUGUG | -2.38 ± 0.11 | -2.41 ± 0.16
AUACAGCAAUAUUACGGAAU | -2.34 ± 0.1 | -1.54 ± 0.13
GCGCAGCAAUAUUACGCCGU | -1.57 ± 0.13 | -2.07 ± 0.27
CAACAGCAAUAUUACGCCGG | -0.647 ± 0.062 | 0.147 ± 0.087
AUCCAGCAAUAUUACGUAGU | -1.54 ± 0.074 | -0.703 ± 0.093
UGUGAGCAAUAUUACGAAGG | -3.98 ± 0.33 | -2.19 ± 0.3
GUCAAGCAAUAUUACGAGAG | -2.41 ± 0.18 | -2.31 ± 0.27
CUCAAGCAAUAUUACGACAC | -3.35 ± 0.29 | -2.52 ± 0.3
UAAGAGCAAUAUUACGCUUA | -3.19 ± 0.32 | -2.63 ± 0.35
GCGCAGCAAUAUUACGUCUU | -0.65 ± 0.049 | 0.336 ± 0.064
CUAGAGCAAUAUUACGCAGG | -2.12 ± 0.14 | -1.75 ± 0.19
GAGAAGCAAUAUUACGAGAC | -2.38 ± 0.3 | -2.64 ± 0.28

Sequence | self-splicing fitness (ln) (30 °C) | self-splicing fitness (ln) (37 °C)
AUGAAGCAAUAUUACGUGAU | -1.24 ± 0.073 | -0.839 ± 0.085
AUAGAGCAAUAUUACGGACA | -2.38 ± 0.27 | -0.896 ± 0.33
CGUCAGCAAUAUUACGUGGU | -3.59 ± 0.12 | -2.5 ± 0.13
AGGCAGCAAUAUUACGGAGC | -3.51 ± 0.14 | -3.32 ± 0.26
GGGGAGCAAUAUUACGACGA | -2.56 ± 0.4 | -1.34 ± 0.28
CAGUAGCAAUAUUACGGAGG | -1.61 ± 0.094 | -0.514 ± 0.12
GUAUAGCAAUAUUACGACUG | -2.88 ± 0.33 | -2.23 ± 0.33
GGUUAGCAAUAUUACGGGGC | – | -2.66 ± 0.4
UCUAAGCAAUAUUACGAGUG | -0.69 ± 0.092 | -0.683 ± 0.14
GGAUAGCAAUAUUACGCCGA | -0.933 ± 0.13 | -0.0698 ± 0.14
AAUUAGCAAUAUUACGCCAA | -2.13 ± 0.18 | -1.25 ± 0.2
UCACAGCAAUAUUACGGGCC | -3.95 ± 0.34 | -2.76 ± 0.33
AACCAGCAAUAUUACGAAUA | -2.32 ± 0.13 | -1.71 ± 0.097
AUUCAGCAAUAUUACGAAUU | -3.71 ± 0.15 | -2.29 ± 0.16
AUUGAGCAAUAUUACGUCUU | -1.39 ± 0.12 | -0.607 ± 0.14
GGAAAGCAAUAUUACGUGCC | -1.94 ± 0.19 | -2.01 ± 0.25
UUGUAGCAAUAUUACGGGCG | -1.05 ± 0.14 | 0.346 ± 0.2
AAAAAGCAAUAUUACGCUCA | -0.278 ± 0.058 | 0.0203 ± 0.082
CGUCAGCAAUAUUACGAGAA | -2.97 ± 0.38 | -2.09 ± 0.29
ACUGAGCAAUAUUACGGUAU | -3.55 ± 0.18 | -3.17 ± 0.26
UGGCAGCAAUAUUACGGGCU | -3.06 ± 0.16 | -2.02 ± 0.15
CCUUAGCAAUAUUACGCUGG | -1.57 ± 0.18 | -2.43 ± 0.3
CCAGAGCAAUAUUACGUAAU | -3.66 ± 0.23 | -3.18 ± 0.3
ACUCAGCAAUAUUACGUUUG | -2.36 ± 0.095 | -1.94 ± 0.14
UGCAAGCAAUAUUACGGCCA | -0.252 ± 0.08 | 1.07 ± 0.14
CGCUAGCAAUAUUACGGAGC | -2.64 ± 0.2 | -1.84 ± 0.24

Sequence | self-splicing fitness (ln) (30 °C) | self-splicing fitness (ln) (37 °C)
UCGUAGCAAUAUUACGGUGA | -1.57 ± 0.096 | -1.11 ± 0.1
GUAGAGCAAUAUUACGCGGA | -1.47 ± 0.14 | -0.734 ± 0.12
CUUGAGCAAUAUUACGCCGU | -3.24 ± 0.29 | –
GGUUAGCAAUAUUACGGCGU | -0.725 ± 0.1 | 0.137 ± 0.13
CAGUAGCAAUAUUACGGCGG | -0.246 ± 0.081 | -0.627 ± 0.091
AUAGAGCAAUAUUACGUAUG | -3.22 ± 0.17 | -0.602 ± 0.14
GUACAGCAAUAUUACGUUUU | -3.88 ± 0.17 | -2.72 ± 0.14
ACCUAGCAAUAUUACGGUCG | -3.53 ± 0.17 | -2.11 ± 0.14
CAGUAGCAAUAUUACGCUUA | -0.683 ± 0.21 | -0.832 ± 0.19
CUCGAGCAAUAUUACGGUGA | -2.66 ± 0.19 | -0.793 ± 0.16
AGGGAGCAAUAUUACGAGCU | -3.49 ± 0.29 | –
GGACAGCAAUAUUACGUAUC | -0.918 ± 0.093 | -0.855 ± 0.11
ACAUAGCAAUAUUACGGAGA | -3.28 ± 0.25 | -2.47 ± 0.24
GGUGAGCAAUAUUACGAUCG | -0.341 ± 0.095 | 0.221 ± 0.13
AAUGAGCAAUAUUACGUGAU | -3.8 ± 0.29 | -0.708 ± 0.2
UGGUAGCAAUAUUACGGGAA | -2.02 ± 0.22 | -1.6 ± 0.19
UGGAAGCAAUAUUACGCCCU | -0.2 ± 0.14 | -0.0341 ± 0.18
AUCGAGCAAUAUUACGUUCA | -0.62 ± 0.095 | -0.544 ± 0.13
GCUAAGCAAUAUUACGCUUG | -3.24 ± 0.17 | -1.71 ± 0.18
ACGGAGCAAUAUUACGGCAU | – | -1.53 ± 0.23
AACCAGCAAUAUUACGGCCC | 0.0145 ± 0.12 | 0.0337 ± 0.099
GACAAGCAAUAUUACGGGUG | -0.472 ± 0.065 | -0.733 ± 0.081
AACGAGCAAUAUUACGCUGC | -3.01 ± 0.26 | -3.06 ± 0.35
GAAGAGCAAUAUUACGCGUG | -2.43 ± 0.078 | -1.32 ± 0.085
GUGGAGCAAUAUUACGGGGG | -3.36 ± 0.44 | –
